We go through three molecules from patent US20210308211A1, “METHOD OF TREATING VIRAL INFECTIONS” (priority 2020, published 2021).

For test [1], the system named is MRL/lpr mice. The experiment in a line: Cellularity analysis of peripheral blood in MRL/lpr mice. In kind it is in vivo, mouse. To be noted: 100 μg/100 μL single injection, 5 days after. The method, then: MRL/lpr mice were injected with 100 μg/100 μL of P140 or P140(MO) and cellularity (preipheral blood) was studied 5 days after this unique injection. The count includes all the leucocytes. In view of the low number of tested mice, a non parametric statistical test has been realised Mann-Whitney).

The test system of test [2] is MRL/lpr mice. The experiment in a line: Survival analysis in MRL/lpr lupus mice. The class given is in vivo, mouse. Conditions: female MRL/lpr mice, intravenous, 20 mice per group; NaCl control 25 weeks. The method, then: It has been determined that this mouse strain carries a mutation in the fas gene. Also, the MRL/lpr is a useful model to study behavioural and cognitive deficits found in autoimmune diseases and the efficacy of immunosuppressive agents [Monneaux et al., 2003, Eur. J. Immunol. 33, 287-296].
Five-week-old female MRL/lpr mice received P140 or peptide P140(MO) intravenously as described (Monneaux et al., 2003, Eur. J. Immunol. 33, 287-296). All experimental protocols were carried out with the approval of the local Institutional Animal Care and Use Committee (CREMEAS). As control, mice were injected with NaCl.
Twenty mice were used for each peptide or NaCl.
Statistical tests were performed using GraphPad Prism version 5.0. The two-way ANOVA test was used to analyze statistical significance of proteinuria differences between control and peptide-treated groups of mice. Survival of control and P140 analogue-treated female MRL/lpr mice was analyzed by the Kaplan-Meier method, and the significance of differences was determined by the log-rank test. For the other variables, statistical significance was assessed using the Student's t-test. p values less than 0.05 were considered significant.

The subject of test [3] is MRL/lpr mice. The experiment in a line: Proteinuria analysis in MRL/lpr mice (Albustix). The class given is in vivo, mouse. To be noted: compared to the untreated mice. The method, then: Proteinuria of the above mice was measured in fresh urine using Albustix (Bayer Diagnostics) and was semi-quantitatively estimated according to a […] recommended by the manufacturer (no proteinuria=0; traces=1; 1+=2; 2+=3; 3+=4; 4+=5).

A further test deals with T1, HSC70 protein (Bos taurus, UniProt P19120).
T1 construct: purchased Stressgen
T1 sequence (P19120 whole entry): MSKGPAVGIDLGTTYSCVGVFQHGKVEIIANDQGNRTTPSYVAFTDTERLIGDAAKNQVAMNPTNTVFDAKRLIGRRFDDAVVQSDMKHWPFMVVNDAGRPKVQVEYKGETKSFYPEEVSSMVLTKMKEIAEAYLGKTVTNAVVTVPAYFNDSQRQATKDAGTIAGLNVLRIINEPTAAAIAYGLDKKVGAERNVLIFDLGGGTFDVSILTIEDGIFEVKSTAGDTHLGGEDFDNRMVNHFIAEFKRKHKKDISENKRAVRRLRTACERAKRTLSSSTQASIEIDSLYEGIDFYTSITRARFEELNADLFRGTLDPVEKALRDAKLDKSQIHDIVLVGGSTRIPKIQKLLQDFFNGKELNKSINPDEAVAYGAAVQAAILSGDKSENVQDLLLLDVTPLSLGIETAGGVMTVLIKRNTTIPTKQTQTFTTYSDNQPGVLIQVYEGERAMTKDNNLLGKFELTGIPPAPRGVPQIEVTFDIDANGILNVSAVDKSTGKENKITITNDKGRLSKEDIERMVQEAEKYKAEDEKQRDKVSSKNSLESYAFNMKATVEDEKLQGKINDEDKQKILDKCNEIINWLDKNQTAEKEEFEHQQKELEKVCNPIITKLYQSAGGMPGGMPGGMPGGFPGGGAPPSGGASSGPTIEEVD
The experiment in a line: BIAcore binding of peptides to immobilized HSC70. Further details: species or system bovine. The method, then:
BIAcore 3000 system (Biacore AB) was used to evaluate the binding of P140 peptides to HSC70 protein (Page et al., 2009, and 2011). Sensor chip CM5, surfactant P20, amine coupling kit containing N-hydroxysuccinimide (NHS) and N-ethyl-N′-dimethylaminopropyl carbodiimide (EDC), 2-(2-pyridinyldithio)ethaneamine (PDEA) and ethanolamine were from Biacore AB. Biosensor assays were performed with HBS-EP buffer as running buffer (10 mM HEPES, 150 mM NaCl, 3 mM EDTA, 0.005% surfactant P20, pH 7.4). The compounds were diluted in the running buffer. The sensor chip surface was regenerated after each experiment by injecting 10 μL of 10 mM HCl. Recombinant bovine HSC70 (Stressgen) was immobilized on flow cells of a CM5 sensor chip through its thiol groups using 35 μL PDEA in 50 mM borate buffer, pH 8.3 on the NHS/EDC-activated matrix. Then, 35 μL of HSC70 (100 μg/mL in formate buffer, pH 4.3) were injected until a response of 13,000 response units (RU) corresponding to 13 ng/mm^2 of HSC70 was immobilized. Twenty μL of a 50 mM cysteine/1 M NaCl solution was used to saturate unoccupied sites on the chip. The direct binding measurement of P140 peptides to HSC70 was carried out at 25° C. with a constant flow rate of 20 μL/min. P140 peptide and analogues were injected in the flux at different concentrations for 3 min, followed by a dissociation phase of 3 min. The kinetic parameters were calculated using the BIAeval 3.1 software on a personal computer. Analysis was performed using the simple 1:1 Langmuir binding model. The specific binding profiles were obtained after subtracting the response signal from the control empty channel and from blank-buffer injection. The fitting to each model was judged by the χ^2 value and randomness of residue distribution compared to the theoretical model.
(In SPR one partner is held on a chip, and binding of the other changes the refractive index at the surface.)

The target in test [4] is Recombinant bovine HSC70 (Stressgen) (bovine) (UniProt P19120). The experiment in a line: SPR, BIAcore 3000; HSC70 immobilised, peptide injected at 1.56 µM; 1:1 Langmuir fit.
Chain of Recombinant bovine HSC70 (Stressgen) (bovine) (P19120 whole entry): as above
The target is the same in test [5]. The experiment in a line: SPR, BIAcore 3000; HSC70 immobilised, peptide injected at 6.25 µM; 1:1 Langmuir fit.
Test [6] has the same target. The experiment in a line: SPR, BIAcore 3000; HSC70 immobilised, peptide injected at 12.5 µM; 1:1 Langmuir fit.
The target is the same in test [7]. The experiment in a line: SPR, BIAcore 3000; HSC70 immobilised, peptide injected; 1:1 Langmuir fit; row for analyte at 3.12 µM.
Test [8] has the same target. The experiment in a line: SPR, BIAcore 3000; HSC70 immobilised, peptide injected; 1:1 Langmuir fit; row for analyte at 12.5 µM.
Test [9] has the same target. The experiment in a line: SPR, BIAcore 3000; HSC70 immobilised, peptide injected; 1:1 Langmuir fit; row for analyte at 1.56 µM.
Test [10] shares this target. The experiment in a line: SPR, BIAcore 3000; HSC70 immobilised, peptide injected at 25 µM; 1:1 Langmuir fit.
The target is the same in test [11]. The experiment in a line: SPR, BIAcore 3000; HSC70 immobilised, peptide injected at 3.12 µM; 1:1 Langmuir fit.
For test [12] the target is unchanged. The experiment in a line: SPR, BIAcore 3000; HSC70 immobilised, peptide injected; 1:1 Langmuir fit; row for analyte at 6.25 µM.
The target is the same in test [13]. The experiment in a line: SPR, BIAcore 3000; HSC70 immobilised, peptide injected; 1:1 Langmuir fit; row for analyte at 25 µM.

For orientation: Kd means the equilibrium constant for the complex coming apart. What is called koff is the first-order rate constant of dissociation.

Non-standard residues stand in square brackets, D forms with d. Residues, ends and D or L forms follow the SMILES beside them. No end group written: not given here. Met(O) = CS(=O)CC[C@H](N)C(=O)O; pS = N[C@@H](COP(=O)(O)O)C(=O)O Where only a bound is given, the exact number is not on record here.

Turning to `CC[C@H](C)[C@H](NC(=O)[C@H](Cc1ccccc1)NC(=O)[C@H](C)NC(=O)[C@H](Cc1ccc(O)cc1)NC(=O)CNC(=O)[C@H](CCCNC(=N)N)NC(=O)[C@@H]1CCCN1C(=O)[C@H](CCCCN)NC(=O)CNC(=O)[C@H](COP(=O)(O)O)NC(=O)[C@H](CCCNC(=N)N)NC(=O)[C@H](CCCCN)NC(=O)[C@H](CO)NC(=O)[C@H](Cc1ccc(O)cc1)NC(=O)[C@@H](NC(=O)[C@H](CC[S+](C)[O-])NC(=O)[C@H](Cc1c[nH]cn1)NC(=O)[C@@H](NC(=O)[C@@H](N)CCCNC(=N)N)[C@@H](C)CC)C(C)C)C(=O)N[C@@H](CCC(=O)O)C(=O)N[C@@H](Cc1ccc(O)cc1)C(=O)O` (stereo partly drawn) [P140(MO), RIHM(O)VYSKRS(PO3H2)GKPRGYAFIEY] (H-RIH[Met(O)]VYSKR[pS]GKPRGYAFIEY-OH), the Peripheral hypercellularity result with MRL/lpr mice [1] was “decrease peripheral hypercellularity”. Moreover, the Median survival with MRL/lpr mice [2] is reported as over 40 weeks. In addition, the Proteinuria result in the test on MRL/lpr mice [3] was “less important and appears lately”. Further, on HSC70 protein (25° C., 1:1 Langmuir model), the “Rmax (RU)” value worked out at 39 RU. On HSC70 protein (25° C., 1:1 Langmuir model, analyte 1.56-25 μM, read-out: ka), the kon was found to be 1150 M⁻¹ s⁻¹. At HSC70 protein (P140 compared with P140 M(O)), the “Affinity for HSC70, oxidized vs non-oxidized peptide (in words)” value was “not statistically different”. Also, the “Req (RU)” value on HSC70 protein (peptide 1.56 μM) is recorded as 17.6 RU; on HSC70 protein (peptide 3.12 μM), 24.2 RU; on HSC70 protein (peptide 6.25 μM), 29.9 RU; on HSC70 protein (peptide 12.5 μM), 33.9 RU; at HSC70 protein (peptide 25 μM) it was 36.3 RU. Moreover, the “kobs” value at HSC70 protein (peptide 12.5 μM) was determined as 0.0166 s⁻¹; at HSC70 protein (peptide 25 μM), 0.031 s⁻¹.

With RIHMVYSKR[pS]GKPRGYAFIEY [P140 peptide (SEQ ID NO: 1 in which serine at position 10 is phosphorylated; SEQ ID NO: 4)], the Req in [4] was 15.3 RU; in test [5] it was 39.5 RU; in [6], 53.6 RU; in test [10] it was 65.2 RU; in test [11], 25.8 RU. The kobs in test [4] came to 0.00382 s⁻¹; in test [5] it was 0.00593 s⁻¹; in test [6] it was 0.00874 s⁻¹; in test [10], 0.0144 s⁻¹; in [11], 0.00452 s⁻¹. The Ka in [7], in test [8], in [9], in [12] and in test [13] was 144000 M⁻¹ throughout. Besides, the Kd in test [7], in test [8], in test [9], in test [12] and in test [13] was 6.94 µM each time. Further, the off-rate (koff) in test [7], in [8], in [9], in test [12] and in test [13] was 0.00312 s⁻¹ in each case.

Regarding RIH[Met(O)]VYSKR[pS]GKPRGYAFIEY, the Req was 17.6 RU in test [4]; 29.9 RU in test [5]; 33.9 RU in test [6]; 36.3 RU in test [10]; 24.2 RU in [11]. Also, the kobs in test [4] worked out at 0.004 s⁻¹; in test [5] it was 0.0094 s⁻¹; in test [6], 0.0166 s⁻¹; in [10], 0.031 s⁻¹; in [11], 0.0058 s⁻¹. The Ka in [7], in [8], in test [9], in [12] and in [13] was 524000 M⁻¹ each time. Moreover, the Kd in test [7], in [8], in test [9], in [12] and in test [13] was 1.91 µM each time. In addition, the koff in test [7], in test [8], in [9], in test [12] and in test [13] was 0.0022 s⁻¹ in each case.
